Measurements reported in US20210301011A1, “COMPOSITION FOR PROPHYLAXIS OR TREATMENT OF IL-8 RELATED DISEASES” (CHUGAI SEIYAKU KABUSHIKI KAISHA, priority 2016, published 2021).
“Also recorded” adds a separate entry of the source.

Columns and labels:
[1] = molecular target: T1, cynomolgus monkey FcγRIIIa (Macaca fascicularis, UniProt Q8SPW2); test: Binding to soluble FcγR (BIACORE T200); details: 20° C., HBS-EP+
T1 construct: the soluble forms of FcγRIa and FcγRIIIa in human and cynomolgus monkey; His tag; made in house
T1 sequence (Q8SPW2 17-208 limits assumed): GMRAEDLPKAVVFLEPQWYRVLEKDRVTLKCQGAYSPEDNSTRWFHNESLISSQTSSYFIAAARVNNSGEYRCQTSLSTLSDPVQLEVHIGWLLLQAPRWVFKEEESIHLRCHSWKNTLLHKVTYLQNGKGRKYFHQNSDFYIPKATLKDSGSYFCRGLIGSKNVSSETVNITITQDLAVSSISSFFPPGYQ
Procedure: (§1) Soluble FcγRIa and FcγRIIIa in both human and cynomolgus monkey were produced in the form of His-tagged molecules by methods known to those of ordinary skill in the art. […] Next, soluble FcγRIa or FcγRIIIa was injected with a running buffer (used as a reference solution), and was made to interact with the antibodies captured onto the sensor chip. HBS-EP+(GE Healthcare) was used as the running buffer, and HBS-EP+ was also used to dilute the soluble FcγRIa or FcγRIIIa. […] All measurements were carried out at 20° C.

human FcγRIIIa = molecular target: T2, human FcγRIIIa (Homo sapiens, UniProt P08637); test: Binding to soluble FcγR (BIACORE T200); details: 20° C., HBS-EP+
T2 construct: the soluble forms of FcγRIa and FcγRIIIa in human and cynomolgus monkey; His tag; made in house
T2 sequence (P08637 17-208 limits assumed): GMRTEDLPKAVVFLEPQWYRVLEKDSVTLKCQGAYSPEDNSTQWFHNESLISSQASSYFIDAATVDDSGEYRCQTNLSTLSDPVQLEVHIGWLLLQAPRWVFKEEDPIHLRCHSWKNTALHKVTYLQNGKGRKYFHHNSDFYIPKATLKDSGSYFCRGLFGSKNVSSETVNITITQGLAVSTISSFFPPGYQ
Procedure: as §1

human FcγRIa = molecular target: T3, human FcγRIa (Homo sapiens, UniProt P12314); test: Binding to soluble FcγR (BIACORE T200); details: 20° C., HBS-EP+
T3 construct: the soluble forms of FcγRIa and FcγRIIIa in human and cynomolgus monkey; His tag; made in house
T3 sequence (P12314 16-292 limits assumed): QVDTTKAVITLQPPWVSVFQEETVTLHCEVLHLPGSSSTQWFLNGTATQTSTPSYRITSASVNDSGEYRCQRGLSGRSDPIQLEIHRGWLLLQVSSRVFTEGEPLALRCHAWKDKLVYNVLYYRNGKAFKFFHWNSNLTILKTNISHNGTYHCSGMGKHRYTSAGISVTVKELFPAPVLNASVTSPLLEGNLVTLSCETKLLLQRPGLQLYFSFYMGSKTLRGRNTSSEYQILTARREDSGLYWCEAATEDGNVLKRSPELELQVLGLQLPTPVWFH
Procedure: as §1

cynomolgus monkey FcγRIa = test: Binding to soluble FcγR (BIACORE T200); details: 20° C., HBS-EP+
Procedure: as §1

adenomyosis lesions = test: Adenomyosis lesions in surgically-induced endometriosis monkey models; type: in vivo, cynomolgus monkeys; details: one case per group, compared to vehicle group
Description: After the final laparoscopic observation six months after the start of antibody administration in surgically-induced endometriosis monkey models, the uteri collected during autopsy were fixed with 10% neutral buffered formalin and HE-stained for observation. Endometrial tissues analogous to those of adenomyosis were strongly seen in the uterus in one case of the vehicle group as well as in one case of the antibody administration group. […] Thus, the monkeys were considered as being a human adenomyosis complication model, and the endometrial tissues in the myometria of these single cases were compared.

endometriosis lesions = type: in vivo, cynomolgus monkeys
Description: Female cynomolgus monkeys of 8 to 14 years of age with regular sexual cycle (provided by the Tsukuba Primate Research Center at the National Institutes of Biomedical Innovation, Health and Nutrition) were laparotomized under anesthesia during the period corresponding to the luteal phase. The uterine corpus was removed by dissecting in a V shape. Then, the uterine corpus was cut into 5 to 10 mm cubes while leaving the smooth muscle layer of the uterus, and one and two pieces were transplanted onto the right abdominal wall and left abdominal wall (cranial and caudal sides), respectively, in such a manner that the endometrium part is in contact with the peritoneum by suturing with an absorbable suture and formed the transplant. After excision, the uterus was sutured with absorbable suture. Then, the remaining endometrial tissues were finely cut and suspended in 5 ml of 2 ng/ml Hepatocyte Growth Factor solution (R&D systems), and this was seeded in the peritoneal cavity for transplantation, followed by closure of the abdomen. Anesthesia was performed using balanced anesthesia of ketamine/xylazine (mixed at an adequate ratio of about 2:1); however, anesthesia was maintained with isoflurane depending on the maintenance period of anesthesia. The body temperature was maintained and controlled during surgery using a heating pad and the condition was monitored electrocardiographically. The antagonist Antisedan (at roughly the same amount as that of xylazine) and antibiotic cephradine were administered at the time of awakening after surgery. The pain reliever Zalban was administered for two days after surgery, and the monkeys were observed regularly every day to confirm the absence of post-surgical abnormalities. In laparoscopic observation, anesthesia and post-surgical monitoring were also performed in the same way.
Laparoscopic observation was carried out four months, nine months (3 months after administration), and 12 months (6 months after administration) following the surgical induction of endometriosis described above, and the pathological conditions of endometriosis were assessed as follows.
The abdomen was incised in the median line under anesthesia, and laparoscopic observation was performed by inserting a trocar and then introducing a laparoscope. The laparoscope was connected to a video system (KARL STORZ) and a monitor. The monitor was used for intraperitoneal observation, and the video system was used for recording. Then, the peritoneal cavity was filled with carbon dioxide gas using Intra-abdominal Insufflation Unit (OLYMPUS) to expand the abdomen, and graduated bars and forceps were inserted from the ventral portion. The size of the lesion was measured using the graduated bar or graduated forceps.
The sizes (width, height, and depth) of nodular lesions formed by suturing the endometrial tissues were measured and the volumes were calculated based on: width (mm)×height (mm)×depth (mm). The lesions and adhesion formed by seeding endometrial tissues after fine cutting were assessed for the site, area, and depth of adhesion and the size of lesion by laparoscopic observation based on modified r-AFS score modified for monkeys from the r-AFS score for clinical use.
1. The item on adhesion to the vesicouterine pouch was added, because in the monkey model, the frequency of adhesion to the urinary bladder is higher than in humans. The method for assessing adhesion to the urinary bladder was the same scoring as that used for adhesion to the Douglas' pouch. 2. Since monkey's body and organ sizes are smaller than those of humans, the criteria of lesion size scoring were altered to: <3 mm, 3-10 mm, and >10 mm
The grouping was performed in two separate times. After randomization based on the mean volume of nodular lesions and the number of measurable lesions in each individual, eventually, six individuals were assigned to vehicle group and seven individuals were assigned to the antibody H1009/L395-F1974m-administered group. […]

post-surgical adhesion = test: Adhesion after surgery (area surrounding the incision site in the abdominal wall) in endometriosis monkey models; type: in vivo, cynomolgus monkeys; details: 10 mg/kg; before vs six months after initiation of administration
Procedure: Specifically, adhesion to the area surrounding the incision site on the abdominal wall was compared before and after administration and evaluated by five evaluators on a three-point scale: (1) Improved, (2) Stable, and (3) Progressed. Ratings with a consensus among three or more of the five evaluators were adopted; otherwise (2) Stable was used. Evaluations were carried out on six monkeys in the vehicle group as well as seven monkeys in the antibody […]/[…]-[…] administration group. […] The monkey with “Progressed” was an individual in which the blood concentration of antibody […]/[…]-[…] had decreased due to anti-antibody production.

B1: H1009/L395-F1974m: H1009-F1974m (SEQ ID NO:36) heavy chain, L395-kOMT light chain; the anti-IL-8 antibody of Table 29 (antibody)
heavy: QVQLVESGGGLVQPGGSLRLSCAASGFTFSDYYLSWVRQAPGKGLEWVGLIRNKDNYHTPEYSASVKGRFTISRDDSKNSLYLTMSDLKTEDTAVYYCARENHRYDVELAYWGQGTLVTVSSASTKGPSVFPLAPSSKSTSGGTAALGCLVKDYFPEPVTVSWNSGALTSGVHTFPAVLQSSGLYSLSSVVTVPSSSLGTQTYICNVNHKPSNTKVDKKVEPKSCDKTHTCPPCPAPELRRGPSVFLFPPKPKDTLMISRTPEVTCVVVDVSHEDPEVKFNWYVDGVEVHNAKTKPREEQYNSTYRVVSVLTVLHQDWLNGKEYKCKVSNKGLPSSIEKTISKAKGQPREPQVYTLPPSREEMTKNQVSLTCLVKGFYPSDIAVEWESNGQPENNYKTTPPVLDSDGSFFLYSKLTVDKSRWQQGNVFSCSVLHEALHAHTTRKELSLSP
light: DIQMTQSPSSLSASVGDRVTITCRASEIIYSYLAWYQQKPGKAPKLLIYKAKTHADGVPSRFSGSGSGTDFTFTISSLQPEDIATYYCKHHFGFPRTFGQGTKVEIKRTVAAPSVFIFPPSDEQLKSGTASVVCLLNNFYPREAKVQWKVDNALQSGNSQESVTEQDSKDSTYSLSSTLTLSKADYEKHKVYACEVTHQGLSSPVTKSFNRGEC
- binding to soluble cynomolgus monkey FcγRIIIa [1]: not to bind to any of the FcγRs
- binding to soluble human FcγRIIIa (human FcγRIIIa): not to bind to any of the FcγRs
- binding to soluble human FcγRIa (human FcγRIa): not to bind to any of the FcγRs
- binding to soluble cynomolgus monkey FcγRIa (cynomolgus monkey FcγRIa): not to bind to any of the FcγRs
- histology of adenomyosis lesions (HE staining) (adenomyosis lesions): atrophy of endometrial epithelia in the adenomyosis lesions as well as reduction and atrophy of stromal cells were observed; also recorded: Atrophy of endometrial epithelium, and atrophy and reduction of stromal cells were observed
- frequency of nodular lesions of type A: proliferative, ≥500 mm3 (endometriosis lesions; 10 mg/kg i.v. q4w, 6 months): 0%
- frequency of nodular lesions of type B: proliferative, <500 mm^3 (endometriosis lesions; 10 mg/kg i.v. q4w, 6 months): 8%
- frequency of nodular lesions of type C: no change (endometriosis lesions; 10 mg/kg i.v. q4w, 6 months): 33%
- frequency of nodular lesions of type D: decreased (endometriosis lesions; 10 mg/kg i.v. q4w, 6 months): 58%
- nodular lesions of type A: proliferative, ≥500 mm3 (lesions/total lesions) (endometriosis lesions; 10 mg/kg i.v. q4w, 6 months): (0/12)
- nodular lesions of type B: proliferative, <500 mm^3 (lesions/total lesions) (endometriosis lesions; 10 mg/kg i.v. q4w, 6 months): (1/12)
- nodular lesions of type C: no change (lesions/total lesions) (endometriosis lesions; 10 mg/kg i.v. q4w, 6 months): (4/12)
- nodular lesions of type D: decreased (lesions/total lesions) (endometriosis lesions; 10 mg/kg i.v. q4w, 6 months): (7/12)
- change of size r-AFS score (endometriosis lesions; after vs before administration, compared to vehicle group): tended to decrease
- change of total r-AFS score (endometriosis lesions; after vs before administration, compared to vehicle group, p=0.0070): clearly decreased as compared to the vehicle group
- change of adhesion score (adhesion r-AFS score) (endometriosis lesions; after vs before administration, compared to vehicle group, p=0.0096): clearly decreased as compared to the vehicle group
- frequency of deep lesions (endometriosis gland ducts invaded up to the muscle layer of abdominal wall) (endometriosis lesions; anti-antibody-positive individuals excluded, vehicle 5/18 lesions): 1/11
- hemosiderin observed (lesions/total) (endometriosis lesions; antibody administration group, vehicle 9/16): 4/17
- hemosiderin observed (percent of lesions) (endometriosis lesions; antibody administration group, vehicle 56%): 24%
- total modified r-AFS score before and after administration (endometriosis lesions; scores recorded by the practitioner during laparoscopic surgery, P=0.875): the score did not change
- post-surgical adhesion: Improved (monkeys/total) (post-surgical adhesion): 6/7
- post-surgical adhesion: Progressed (monkeys/total) (post-surgical adhesion): 1/7
- post-surgical adhesion: Stable (monkeys/total) (post-surgical adhesion): 0/7
